Laboratory results reported in patent US20080305123A1.
“And” between values parts separate entries of the source, which are not always exact repeats. Equal entries are not always repeated.

Experiments:
[1] = molecular target: PsaA receptor on Detroit 562 human nasopharyngeal epithelial cells (human); experiment: competition of PsaA-coated bead adherence to Detroit 562 cells by P4 in solution (second of the three doses, printed 100 µg)
[2] = molecular target: PsaA receptor on Detroit 562 human nasopharyngeal epithelial cells (human); experiment: coated fluorospheres on Detroit 562 cells, 1640±210 beads/well
[3] = molecular target: PsaA receptor on Detroit 562 human nasopharyngeal epithelial cells (human); experiment: homologous competitor P4 in solution against P4-coated fluospheres on Detroit 562 cells
[4] = molecular target: PsaA receptor on Detroit 562 human nasopharyngeal epithelial cells (human); experiment: competition of PsaA-coated bead adherence to Detroit 562 cells by P4 in solution
[5] = molecular target: PsaA receptor on Detroit 562 human nasopharyngeal epithelial cells (human); experiment: coated fluospheres at 1:50 dilution on Detroit 562 cells
[6] = molecular target: PsaA receptor on Detroit 562 human nasopharyngeal epithelial cells (human); experiment: competitor P4 in solution against P4-coated beads on Detroit 562 cells
[7] = molecular target: PsaA receptor on Detroit 562 human nasopharyngeal epithelial cells (human); experiment: time course on Detroit 562 cells, n=6, 180 min
[8] = molecular target: PsaA receptor on Detroit 562 human nasopharyngeal epithelial cells (human); experiment: 2,600 fluospheres/well on Detroit 562 cells, day 1 after labeling
[9] = molecular target: PsaA receptor on Detroit 562 human nasopharyngeal epithelial cells (human); experiment: 2,600 fluospheres/well on Detroit 562 cells, day 60 after labeling
[10] = molecular target: PsaA receptor on Detroit 562 human nasopharyngeal epithelial cells (human); experiment: time course on Detroit 562 cells, n=6, 20 min
[11] = molecular target: PsaA receptor on Detroit 562 human nasopharyngeal epithelial cells (human); experiment: cold chase with non-fluorescent PsaA-coated spheres against PsaA-coated fluospheres on Detroit 562 cells
[12] = molecular target: PsaA receptor on Detroit 562 human nasopharyngeal epithelial cells (human); experiment: time course on Detroit 562 cells, n=6, 140 min
[13] = molecular target: PsaA receptor on Detroit 562 human nasopharyngeal epithelial cells (human); experiment: adherence of unsaturated rPsaA fluospheres to Detroit 562 cells with P3 peptide added

Substance	% reduction in FU [1] [%]	adherence (mean FU) [2] [FU]	percent reduction in adherence [3]	% reduction in FU [4] [%]	adherence signal (FU) [5] [FU]	percent reduction in adherence [6]	mean adherence signal (FU) [7] [FU]	mean adherence (FU) [8] [FU]	mean adherence (FU) [9] [FU]	mean adherence signal (FU) [10] [FU]	% inhibition of adherence of PsaA-coated fluospheres [11] [%]	mean adherence signal (FU) [12] [FU]	fold enhancement of binding by P3 peptide [13] [fold]
P4 peptide (PsaA amino acid residues 251 to 278 with DD changed to KR)	68	19300	89.4% and 87.6% and 88.9%	23	> 100000	89.4% and 87.6% and 88.9%	–	–	–	–	–	–	–
recombinant pneumococcal surface adhesin A (rPsaA) of Streptococcus pneumoniae (from UniProt P0A4G2 20-309) (ligand)	–	–	–	–	> 100000	–	17500	30100	30600	2320	< 31	16600	< 2.5
